Results from patent publication US10428140B2, “Anti-EphA4 antibody” (EISAI R&D MANAGEMENT CO., LTD., priority 2015, dated 2019).
Where a chain is given by its changes, count along the chain named. Each block holds one molecule with its values, some of them ahead of it.

Assays:
Experiment in all cases: Selectivity ELISA of humanized antibodies for human Eph receptor
Format in all cases: binding
Conditions in all cases: coated protein 1 nM
human EphA8 = target: T1, human EphA8 (Homo sapiens, UniProt P29322)
T1 construct: a protein of the extracellular region of each human Eph receptor fused with the SEAP protein and the His tag; made in house; host or cells: Expi293F cells (culture supernatant)
T1 sequence (P29322 28-542 limits assumed): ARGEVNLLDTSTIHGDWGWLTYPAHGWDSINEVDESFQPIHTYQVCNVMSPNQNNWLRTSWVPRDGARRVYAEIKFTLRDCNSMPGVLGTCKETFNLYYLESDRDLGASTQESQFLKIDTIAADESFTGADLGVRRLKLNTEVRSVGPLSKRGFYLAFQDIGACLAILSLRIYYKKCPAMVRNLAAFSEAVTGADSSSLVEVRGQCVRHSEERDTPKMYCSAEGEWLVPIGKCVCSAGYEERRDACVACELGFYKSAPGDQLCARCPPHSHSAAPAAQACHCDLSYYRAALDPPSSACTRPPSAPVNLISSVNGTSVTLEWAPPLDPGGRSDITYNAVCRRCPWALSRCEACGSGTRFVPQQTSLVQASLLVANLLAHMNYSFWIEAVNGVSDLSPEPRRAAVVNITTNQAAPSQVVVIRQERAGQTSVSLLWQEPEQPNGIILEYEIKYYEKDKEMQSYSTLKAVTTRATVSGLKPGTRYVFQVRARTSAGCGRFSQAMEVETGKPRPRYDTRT
Summary of the method: (§1)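 Read-out is A450 after TMB development stopped with 1N H2SO4. Plates bore anti-His-captured human Eph extracellular region-SEAP-His proteins at 1 nM final, made in Expi293F cells. Humanized antibody binding ran 1 h at room temperature before HRP-labeled anti-IgG detection.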

human EphA1 = target: T2, human EphA1 (Homo sapiens, UniProt P21709)
T2 construct: a protein of the extracellular region of each human Eph receptor fused with the SEAP protein and the His tag; made in house; host or cells: Expi293F cells (culture supernatant)
T2 sequence (P21709 26-547 limits assumed): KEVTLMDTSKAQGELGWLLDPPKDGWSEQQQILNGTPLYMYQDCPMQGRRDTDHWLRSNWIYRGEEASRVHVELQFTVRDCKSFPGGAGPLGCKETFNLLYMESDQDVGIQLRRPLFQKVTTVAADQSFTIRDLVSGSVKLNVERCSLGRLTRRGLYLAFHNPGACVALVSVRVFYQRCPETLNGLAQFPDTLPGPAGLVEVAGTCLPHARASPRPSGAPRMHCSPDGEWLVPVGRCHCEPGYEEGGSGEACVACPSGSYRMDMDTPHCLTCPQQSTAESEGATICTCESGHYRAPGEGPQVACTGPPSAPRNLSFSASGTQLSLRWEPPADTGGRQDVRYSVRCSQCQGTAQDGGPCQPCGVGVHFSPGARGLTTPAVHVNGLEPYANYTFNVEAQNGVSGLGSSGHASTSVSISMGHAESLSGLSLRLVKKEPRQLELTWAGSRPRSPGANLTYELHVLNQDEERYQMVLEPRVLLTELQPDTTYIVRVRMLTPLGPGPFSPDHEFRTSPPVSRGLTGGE
Summary of the method: as §1

human EphB1 = target: T3, human EphB1 (Homo sapiens, UniProt P54762)
T3 construct: a protein of the extracellular region of each human Eph receptor fused with the SEAP protein and the His tag; made in house; host or cells: Expi293F cells (culture supernatant)
T3 sequence (P54762 18-540 limits assumed): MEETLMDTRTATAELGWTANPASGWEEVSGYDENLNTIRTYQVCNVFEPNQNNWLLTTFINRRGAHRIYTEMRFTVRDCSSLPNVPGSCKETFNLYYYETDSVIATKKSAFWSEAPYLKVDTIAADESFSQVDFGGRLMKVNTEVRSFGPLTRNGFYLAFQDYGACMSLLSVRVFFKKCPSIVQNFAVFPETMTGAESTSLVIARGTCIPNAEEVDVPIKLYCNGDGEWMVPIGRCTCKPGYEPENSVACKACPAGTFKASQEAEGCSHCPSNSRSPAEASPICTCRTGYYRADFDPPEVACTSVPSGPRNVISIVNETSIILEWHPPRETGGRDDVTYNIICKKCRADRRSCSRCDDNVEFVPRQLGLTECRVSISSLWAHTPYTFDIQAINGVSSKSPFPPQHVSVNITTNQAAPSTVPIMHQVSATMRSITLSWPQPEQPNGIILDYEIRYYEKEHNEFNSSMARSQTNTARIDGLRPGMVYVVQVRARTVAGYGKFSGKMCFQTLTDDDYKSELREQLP
Summary of the method: as §1

hEphA8-SEAP-: absorbance at 450 nm, percentage with respect to hEphA4-SEAP-His as 100% (human EphA8): 5.5% | hEphA1-SEAP-: absorbance at 450 nm, percentage with respect to hEphA4-SEAP-His as 100% (human EphA1): 5.7% | hEphB1-SEAP-: absorbance at 450 nm, percentage with respect to hEphA4-SEAP-His as 100% (human EphB1): 5.4%
B1: 156 (antibody, V domains shown)
VH: QIQLVQSGSELKKPGASVKVSCKASGYTFTDYSMHWVRQAPGQGLKWMGWINTETGEPTYAQGFTGRFVFSLDTSVSTAYLQISSLKAEDTAVYYCARIPLYYYGSRYWYFDVWGQGTTVTVSS
VL: DIQMTQSPSSLSASVGDRVTITCRASENIYRNLAWYQQKPGKAPQLLLYAATNLADGVPSRFSGSGSGTDYTLTISSLQPEDFATYYCQHFWGTPWTFGQGTKVEIK
modifications: synthetic humanized antibody heavy chain variable region sequence; synthetic humanized antibody light chain variable region sequence

hEphA8-SEAP-: absorbance at 450 nm, percentage with respect to hEphA4-SEAP-His as 100% (human EphA8): 5.4% | hEphA1-SEAP-: absorbance at 450 nm, percentage with respect to hEphA4-SEAP-His as 100% (human EphA1): 5.3% | hEphB1-SEAP-: absorbance at 450 nm, percentage with respect to hEphA4-SEAP-His as 100% (human EphB1): 5.2%
B2: 136 (antibody, V domains shown)
VH: B1 VH with I2V, Q62D, G63D, T65K
VL: EIVMTQSPATLSVSPGERATLSCRASENIYRNLAWYQQKPGQSPRLLIYAATNLADGIPARFSGSGSGTEYTLTISSLQSEDFAVYYCQHFWGTPWTFGQGTKVEIK
modifications: synthetic humanized antibody heavy chain variable region sequence; synthetic humanized antibody light chain variable region sequence
